Laboratory results reported in paper PMC9758440.

Target: N-terminal SNAP-tagged FGFR1c on the surface of stable COS7 cells (human) (UniProt P11362)
Test: FRET or BRET

N-terminal SNAP-tagged FGFR1c on the surface of stable COS7 cells (from UniProt P11362 22-822) (receptor)
fold increase of the TR-FRET signal with FGF2: 2.8 fold
